Holding throughout (assay): SEC-MALS; 100 ug purified Strep-tagged PfPdx1 on Superdex 200 10/30 with static light scattering (miniDAWN Tristar); 100 mM Tris-HCl pH 8.0, 150 mM NaCl, no amino acid added
(Size exclusion chromatography separates by hydrodynamic size, large species first.)

In assay [1] the target is PfPdx1 K83A (P. falciparum) (UniProt C6KT50).
Assay [2] addresses PfPdx1 ERR (E136A/R139A/R140A) triple mutant (P. falciparum) (UniProt C6KT50).
In assay [3] the target is PfPdx1 D26A (P. falciparum) (UniProt C6KT50).

What is called stoichiometry N is a count of units in the complex or per binding partner. Regarding “PfPdx1 K83A (from UniProt C6KT50 1-301) (enzyme)”, in assay [1], the stoichiometry N was 12.
Take “PfPdx1 ERR (E136A/R139A/R140A) triple mutant (from UniProt C6KT50 1-301) (enzyme)”: the stoichiometry N in assay [2] was 12.
“PfPdx1 D26A (from UniProt C6KT50 1-301) (enzyme)” gave a stoichiometry N in assay [3] of 12.

Source of the values: article PMC2266796.
